Experimental findings from paper PMC12416549 (2024) are described below.

This assay has as its target T1, TNFR1 (Homo sapiens, UniProt P19438).
T1 chain: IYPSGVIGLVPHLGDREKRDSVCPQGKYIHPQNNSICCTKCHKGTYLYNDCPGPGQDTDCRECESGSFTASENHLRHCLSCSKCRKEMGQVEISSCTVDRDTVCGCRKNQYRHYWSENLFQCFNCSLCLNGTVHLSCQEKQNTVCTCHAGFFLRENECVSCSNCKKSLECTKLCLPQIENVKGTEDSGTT
Put plainly: yeast display SC50.

B1: Y13F (designed binder)
chain: SMEEEVEKAAKEFEKKKKEAIEKHLEKLKAKDKEAAERFLKELEEAAKEYAKDEAKTMSEEEAKRRAKKYKEKVLLSELSEEEQKEIKEAEEKLVRTILKYVEEAAK
On to B1, for which the “apparent Kd (screen)” value worked out at 0.446 nM.

B2: E81W (designed binder)
chain: SMEEEVEKAAKEYEKKKKEAIEKHLEKLKAKDKEAAERFLKELEEAAKEYAKDEAKTMSEEEAKRRAKKYKEKVLLSELSWEEQKEIKEAEEKLVRTILKYVEEAAK
B2: the “apparent Kd (screen)” value stood at 0.304 nM.

B3: A105N (designed binder)
chain: SMEEEVEKAAKEYEKKKKEAIEKHLEKLKAKDKEAAERFLKELEEAAKEYAKDEAKTMSEEEAKRRAKKYKEKVLLSELSEEEQKEIKEAEEKLVRTILKYVEENAK
Regarding B3, the “apparent Kd (screen)” value was 1.86 nM.

B4: K64Y (designed binder)
chain: SMEEEVEKAAKEYEKKKKEAIEKHLEKLKAKDKEAAERFLKELEEAAKEYAKDEAKTMSEEEAYRRAKKYKEKVLLSELSEEEQKEIKEAEEKLVRTILKYVEEAAK
For B4, the “apparent Kd (screen)” value is 0.446 nM.

B5: E104V (designed binder)
chain: SMEEEVEKAAKEYEKKKKEAIEKHLEKLKAKDKEAAERFLKELEEAAKEYAKDEAKTMSEEEAKRRAKKYKEKVLLSELSEEEQKEIKEAEEKLVRTILKYVEVAAK
For B5, the “apparent Kd (screen)” value is 0.446 nM.

B6: K52G (designed binder)
chain: SMEEEVEKAAKEYEKKKKEAIEKHLEKLKAKDKEAAERFLKELEEAAKEYAGDEAKTMSEEEAKRRAKKYKEKVLLSELSEEEQKEIKEAEEKLVRTILKYVEEAAK
For B6, the “apparent Kd (screen)” value is 0.869 nM.

B7: L28G (designed binder)
chain: SMEEEVEKAAKEYEKKKKEAIEKHLEKGKAKDKEAAERFLKELEEAAKEYAKDEAKTMSEEEAKRRAKKYKEKVLLSELSEEEQKEIKEAEEKLVRTILKYVEEAAK
Take B7: the “apparent Kd (screen)” value was found to be 1.4 nM.

B8: K17T (designed binder)
chain: SMEEEVEKAAKEYEKKTKEAIEKHLEKLKAKDKEAAERFLKELEEAAKEYAKDEAKTMSEEEAKRRAKKYKEKVLLSELSEEEQKEIKEAEEKLVRTILKYVEEAAK
As to B8, the “apparent Kd (screen)” value came out at 1.05 nM.

B9: L25T (designed binder)
chain: SMEEEVEKAAKEYEKKKKEAIEKHTEKLKAKDKEAAERFLKELEEAAKEYAKDEAKTMSEEEAKRRAKKYKEKVLLSELSEEEQKEIKEAEEKLVRTILKYVEEAAK
With B9, the “apparent Kd (screen)” value came out at 1.86 nM.

B10: A9T (designed binder)
chain: SMEEEVEKTAKEYEKKKKEAIEKHLEKLKAKDKEAAERFLKELEEAAKEYAKDEAKTMSEEEAKRRAKKYKEKVLLSELSEEEQKEIKEAEEKLVRTILKYVEEAAK
For B10, the “apparent Kd (screen)” value is 0.446 nM.

B11: D53Y (designed binder)
chain: SMEEEVEKAAKEYEKKKKEAIEKHLEKLKAKDKEAAERFLKELEEAAKEYAKYEAKTMSEEEAKRRAKKYKEKVLLSELSEEEQKEIKEAEEKLVRTILKYVEEAAK
For the molecule B11, the “apparent Kd (screen)” value amounted to 2.73 nM.

B12: L79C (designed binder)
chain: SMEEEVEKAAKEYEKKKKEAIEKHLEKLKAKDKEAAERFLKELEEAAKEYAKDEAKTMSEEEAKRRAKKYKEKVLLSECSEEEQKEIKEAEEKLVRTILKYVEEAAK
As for B12, the “apparent Kd (screen)” value was found to be 1.86 nM.

B13: D32C (designed binder)
chain: SMEEEVEKAAKEYEKKKKEAIEKHLEKLKAKCKEAAERFLKELEEAAKEYAKDEAKTMSEEEAKRRAKKYKEKVLLSELSEEEQKEIKEAEEKLVRTILKYVEEAAK
Regarding B13, the “apparent Kd (screen)” value worked out at 3 nM.
